# Experimental data: patent US20140205611A1 (EVEC, published 2014)
# Tests used:
# [1] = molecular target: T1, recombinant hGM-CSF derived from yeast (Leukine, Berlex) (human, UniProt P04141 18-144); assay: SPR (Biacore), antibody captured via immobilised protein G, rhGM-CSF injected
# T1 construct: Bought product; also called yeast hGM-CSF (Leukine); yeast GM-CSF (Leukine)
# Experimental: To calculate affinity constants for recombinant hGM-CSF binding to anti-hGM-CSF monoclonal antibodies, surface plasmon resonance (SPR) was performed on a Biacore System™ (FIG. 2).
# In the method to analyze the interaction between antibodies and antigens, the purified antibodies were captured on a sensor chip via interaction with protein G immobilized to sensor chip surface, and then recombinant antigens were injected to the sensor chip. Purified antibodies were used and recombinant hGM-CSF was used as an antigen.
# [2] = molecular target: recombinant hGM-CSF expressed in E. coli (Fa. Biomol #2514) (human, UniProt P04141 18-144); assay: cell-based or functional assay
# recombinant hGM-CSF expressed in E. coli (Fa. Biomol #2514), sequence (P04141 18-144 limits assumed): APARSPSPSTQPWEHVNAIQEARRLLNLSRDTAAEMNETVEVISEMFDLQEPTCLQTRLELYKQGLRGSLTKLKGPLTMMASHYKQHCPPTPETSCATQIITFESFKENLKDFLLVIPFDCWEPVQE
# T1 sequence (P04141 other isoform, or with tags, fused parts or gaps limits assumed): as the sequence (P04141 18-144 limits assumed) above, with R23L counted along it
Kd [1],"IC50 in TF-1 assay, hGM-CSF (E. coli) at 1.0 ng/ml final concentration [2]","Ratio: Reference antibody to antibody of interest (IC50 of BVD2-21C11 over IC50 of EV1018, TF-1 assay) [2]",Binder
230 pM,20 pM,413,"EV1018 (antibody, human IgG1, lambda, also called wild-type EV1018; WT EV1018) heavy: not shown light: QSALTQETSVSGTVGQKVTLSCIGNNNNIGSHAVGWYQQISRGAPKMVLFGRSPPSGVPDRFSGSKSGTTASLIISGLQPEDEADYYCSTWDSSLSAVVFGGGTKLTVLRQPKAAPSVTLFPPSSEELQANKATLVCLISDFYPGAVTVAWKADSSPVKAGVETTTPSKQSNNKYAASSYLSLTPEQWKSHRSYSCQVTHEGSTVEKTVAPTECS"
360 pM,–,–,"EV1019 (antibody, human IgG1, lambda, V domains shown, also called EV1019 Batch 1; EV1019 Batch 2) VH: QAQLVESGGGVVKPGGSLRLSCISSKFTFSSHAMHWVRQAPGKGLEWVAVIWHDGSKKYYADSVKGRFSVSRDNSKNTLFLQMDSLRAEDTAVYFCGKEWVGGTCDSWGQGTLVIVSS VL: QPALTQEASVSGTVGQTVTLLCSGNSSNIGSYAVGWYQQISRGAPKIVVFGKSPASGIPDRFSGSKSGTTASLLVSGLQPEDEADYYCSTWDSRLSAVLFGGGTKLTVLR"
